Tested on: Escherichia coli TOP10
Assay: shrunken log2 fold change of peptide-encoding DNA abundance (4.5 h post-induction vs induction); higher = less antimicrobial activity (less host growth inhibition)
Conditions: time post-induction: 4.5 h; library: site-saturation at positions 5, 18, 19, 20
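Note: peptides expressed intracellularly from a pBAD plasmid library in pooled LB shake-flask culture, induced with 0.3% L-arabinose, DNA abundance read by NGS, three biological replicates, DESeq2 with apeglm shrinkage.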

RRIRTRPPRLPRPRPRPWHTPRP and RRIRTRPPRLPRPRPRPWIFPRP are within 0.2 log units of each other in “shrunken log2 fold change” value: -0.0217 for the first, -0.0415 for the second.

RRIRTRPPRLPRPRPRPWKAPRP and RRIRTRPPRLPRPRPRPWLFPRP are within 0.2 log units of each other in “shrunken log2 fold change” value: 0.0456 for the first, 0.212 for the second.

RRIRTRPPRLPRPRPRPWLNPRP and RRIRTRPPRLPRPRPRPWLRPRP are within 0.2 log units of each other in “shrunken log2 fold change” value: -0.0665 for the first, -0.161 for the second.

Going from RRIRTRPPRLPRPRPRPWPHPRP to RRIRTRPPRLPRPRPRPWQRPRP, the “shrunken log2 fold change” value rises from -0.091 to 0.157.

First: RRIRTRPPRLPRPRPRPWRHPRP
Second: RRIRTRPPRLPRPRPRPWSIPRP
The “shrunken log2 fold change” value of the first is higher: -0.0184 for the first, -0.325 for the second.

RRIRTRPPRLPRPRPRPWVAPRP and RRIRTRPPRLPRPRPRPWVIPRP are within 0.2 log units of each other in “shrunken log2 fold change” value: -0.0456 for the first, 0.0147 for the second.

RRIRTRPPRLPRPRPRPWVRPRP and RRIRTRPPRLPRPRPRPWVSPRP are within 0.2 log units of each other in “shrunken log2 fold change” value: 0.0999 for the first, 0.137 for the second.

RRIRTRPPRLPRPRPRPWWMPRP and RRIRTRPPRLPRPRPRPWYCPRP are within 0.2 log units of each other in “shrunken log2 fold change” value: -0.133 for the first, -0.153 for the second.

Compared with RRIRTRPPRLPRPRPRPWYKPRP, RRIRTRPPRLPRPRPRPYCFPRP is lower in “shrunken log2 fold change” value: -0.0134 for the first, -0.301 for the second.

First: RRIRTRPPRLPRPRPRPYCSPRP
Second: RRIRTRPPRLPRPRPRPYCYPRP
The “shrunken log2 fold change” value of the first is lower: -0.858 for the first, -0.104 for the second.

Compared with RRIRTRPPRLPRPRPRPYDGPRP, RRIRTRPPRLPRPRPRPYDIPRP is lower in “shrunken log2 fold change” value: -0.0303 for the first, -0.795 for the second.

Going from RRIRTRPPRLPRPRPRPYDQPRP to RRIRTRPPRLPRPRPRPYEKPRP, the “shrunken log2 fold change” value falls from -0.241 to -0.657.

RRIRTRPPRLPRPRPRPYEYPRP and RRIRTRPPRLPRPRPRPYGAPRP are within 0.2 log units of each other in “shrunken log2 fold change” value: 0.0353 for the first, -0.0628 for the second.

RRIRTRPPRLPRPRPRPYGIPRP and RRIRTRPPRLPRPRPRPYGMPRP are within 0.2 log units of each other in “shrunken log2 fold change” value: -0.0927 for the first, -0.0576 for the second.

Compared with RRIRTRPPRLPRPRPRPYGPPRP, RRIRTRPPRLPRPRPRPYGQPRP is higher in “shrunken log2 fold change” value: -0.406 for the first, -0.107 for the second.

Compared with RRIRTRPPRLPRPRPRPYHLPRP, RRIRTRPPRLPRPRPRPYIIPRP is higher in “shrunken log2 fold change” value: -0.805 for the first, -0.59 for the second.

First: RRIRTRPPRLPRPRPRPYITPRP
Second: RRIRTRPPRLPRPRPRPYLEPRP
The “shrunken log2 fold change” value of the first is lower: -1.19 for the first, -0.573 for the second.

Compared with RRIRTRPPRLPRPRPRPYMWPRP, RRIRTRPPRLPRPRPRPYNDPRP is higher in “shrunken log2 fold change” value: -0.233 for the first, -0.00735 for the second.

RRIRTRPPRLPRPRPRPYNHPRP and RRIRTRPPRLPRPRPRPYNIPRP are within 0.2 log units of each other in “shrunken log2 fold change” value: -0.138 for the first, -0.131 for the second.

First: RRIRTRPPRLPRPRPRPYNKPRP
Second: RRIRTRPPRLPRPRPRPYPHPRP
The “shrunken log2 fold change” value of the first is lower: -1.03 for the first, 0.0321 for the second.

RRIRTRPPRLPRPRPRPYQFPRP and RRIRTRPPRLPRPRPRPYRRPRP are within 0.2 log units of each other in “shrunken log2 fold change” value: 0.0636 for the first, -0.0138 for the second.

First: RRIRTRPPRLPRPRPRPYSYPRP
Second: RRIRTRPPRLPRPRPRPYVMPRP
The “shrunken log2 fold change” value of the first is higher: -0.692 for the first, -1.53 for the second.

Going from RRIRTRPPRLPRPRPRPYYIPRP to RRIRTRPPRLPRPRPRPYYPPRP, the “shrunken log2 fold change” value rises from -0.845 to -0.335.

First: RRIRTRPPRLPRPRPRPYYTPRP
Second: RRIRVRPPRLPRPRPRPAAVPRP
The “shrunken log2 fold change” value of the first is lower: -0.336 for the first, 0.114 for the second.

RRIRVRPPRLPRPRPRPADVPRP and RRIRVRPPRLPRPRPRPAEEPRP are within 0.2 log units of each other in “shrunken log2 fold change” value: 0.000571 for the first, 0.113 for the second.

First: RRIRVRPPRLPRPRPRPAEFPRP
Second: RRIRVRPPRLPRPRPRPAGAPRP
The “shrunken log2 fold change” value of the first is lower: 0.151 for the first, 0.417 for the second.

Going from RRIRVRPPRLPRPRPRPAGGPRP to RRIRVRPPRLPRPRPRPAGPPRP, the “shrunken log2 fold change” value falls from 1.15 to 0.264.

First: RRIRVRPPRLPRPRPRPAGQPRP
Second: RRIRVRPPRLPRPRPRPAHSPRP
The “shrunken log2 fold change” value of the first is higher: 0.375 for the first, 0.0902 for the second.

Going from RRIRVRPPRLPRPRPRPAITPRP to RRIRVRPPRLPRPRPRPAKEPRP, the “shrunken log2 fold change” value rises from -0.142 to 0.226.

RRIRVRPPRLPRPRPRPAKNPRP and RRIRVRPPRLPRPRPRPALPPRP are within 0.2 log units of each other in “shrunken log2 fold change” value: 0.153 for the first, 0.329 for the second.

RRIRVRPPRLPRPRPRPALYPRP and RRIRVRPPRLPRPRPRPAMVPRP are within 0.2 log units of each other in “shrunken log2 fold change” value: 0.22 for the first, 0.118 for the second.

RRIRVRPPRLPRPRPRPANPPRP and RRIRVRPPRLPRPRPRPANQPRP are within 0.2 log units of each other in “shrunken log2 fold change” value: -0.21 for the first, -0.186 for the second.

Going from RRIRVRPPRLPRPRPRPAPQPRP to RRIRVRPPRLPRPRPRPAQIPRP, the “shrunken log2 fold change” value falls from 0.618 to -0.246.

RRIRVRPPRLPRPRPRPASWPRP and RRIRVRPPRLPRPRPRPAVAPRP are within 0.2 log units of each other in “shrunken log2 fold change” value: 0.294 for the first, 0.266 for the second.

RRIRVRPPRLPRPRPRPAVRPRP and RRIRVRPPRLPRPRPRPAWEPRP are within 0.2 log units of each other in “shrunken log2 fold change” value: 0.123 for the first, 0.162 for the second.

Going from RRIRVRPPRLPRPRPRPAYDPRP to RRIRVRPPRLPRPRPRPAYSPRP, the “shrunken log2 fold change” value rises from -0.565 to -0.167.

First: RRIRVRPPRLPRPRPRPAYWPRP
Second: RRIRVRPPRLPRPRPRPCDMPRP
The “shrunken log2 fold change” value of the first is higher: -0.000323 for the first, -0.448 for the second.

First: RRIRVRPPRLPRPRPRPCEVPRP
Second: RRIRVRPPRLPRPRPRPCFQPRP
The “shrunken log2 fold change” value of the first is higher: -0.0542 for the first, -0.313 for the second.

RRIRVRPPRLPRPRPRPCGKPRP and RRIRVRPPRLPRPRPRPCGVPRP are within 0.2 log units of each other in “shrunken log2 fold change” value: -0.15 for the first, -0.0743 for the second.

RRIRVRPPRLPRPRPRPCLVPRP and RRIRVRPPRLPRPRPRPCMGPRP are within 0.2 log units of each other in “shrunken log2 fold change” value: -0.115 for the first, -0.234 for the second.

First: RRIRVRPPRLPRPRPRPCMHPRP
Second: RRIRVRPPRLPRPRPRPCNDPRP
The “shrunken log2 fold change” value of the first is higher: 1.2 for the first, -0.437 for the second.

First: RRIRVRPPRLPRPRPRPCNVPRP
Second: RRIRVRPPRLPRPRPRPCPDPRP
The “shrunken log2 fold change” value of the first is lower: -0.452 for the first, -0.0269 for the second.

RRIRVRPPRLPRPRPRPCPEPRP and RRIRVRPPRLPRPRPRPCPGPRP are within 0.2 log units of each other in “shrunken log2 fold change” value: -0.189 for the first, 0.00413 for the second.

RRIRVRPPRLPRPRPRPCQIPRP and RRIRVRPPRLPRPRPRPCRDPRP are within 0.2 log units of each other in “shrunken log2 fold change” value: -0.34 for the first, -0.4 for the second.

RRIRVRPPRLPRPRPRPCRWPRP and RRIRVRPPRLPRPRPRPCTHPRP are within 0.2 log units of each other in “shrunken log2 fold change” value: 0.182 for the first, 0.0145 for the second.

First: RRIRVRPPRLPRPRPRPCTRPRP
Second: RRIRVRPPRLPRPRPRPCVNPRP
The “shrunken log2 fold change” value of the first is lower: -0.214 for the first, 0.125 for the second.

RRIRVRPPRLPRPRPRPCWDPRP and RRIRVRPPRLPRPRPRPCWIPRP are within 0.2 log units of each other in “shrunken log2 fold change” value: -0.154 for the first, -0.0862 for the second.

First: RRIRVRPPRLPRPRPRPCYMPRP
Second: RRIRVRPPRLPRPRPRPDDYPRP
The “shrunken log2 fold change” value of the first is higher: 0.155 for the first, -0.272 for the second.

RRIRVRPPRLPRPRPRPDEFPRP and RRIRVRPPRLPRPRPRPDFHPRP are within 0.2 log units of each other in “shrunken log2 fold change” value: -0.0422 for the first, -0.208 for the second.

Going from RRIRVRPPRLPRPRPRPDFTPRP to RRIRVRPPRLPRPRPRPDGKPRP, the “shrunken log2 fold change” value rises from -0.282 to -0.0236.

RRIRVRPPRLPRPRPRPDGLPRP and RRIRVRPPRLPRPRPRPDGPPRP are within 0.2 log units of each other in “shrunken log2 fold change” value: 0.0431 for the first, 0.0955 for the second.

RRIRVRPPRLPRPRPRPDHQPRP and RRIRVRPPRLPRPRPRPDHYPRP are within 0.2 log units of each other in “shrunken log2 fold change” value: -0.00679 for the first, -0.149 for the second.

Going from RRIRVRPPRLPRPRPRPDIIPRP to RRIRVRPPRLPRPRPRPDKRPRP, the “shrunken log2 fold change” value rises from -0.35 to 0.0226.

Compared with RRIRVRPPRLPRPRPRPDLIPRP, RRIRVRPPRLPRPRPRPDLNPRP is lower in “shrunken log2 fold change” value: 0.0639 for the first, -0.233 for the second.

In the case of RRIRVRPPRLPRPRPRPDNKPRP, the “shrunken log2 fold change” value was -0.581.

From the supplement of paper PMC9112550, “Optimization of the antimicrobial peptide Bac7 by deep mutational scanning” (BMC Biology, 2022)
